Reference: the RNAGym collection of RNA variant scans (doi:10.7554/elife.90254)

B1: LINE1-mini (parent)
chain: GGCAGAGCUCAACACAGCGUGGCAAAGUGGCUGUGGCUAGACUGCC

Variants of: B1
Experiment: self-cleavage, relative activity (ratio to wild type); higher = more cleavage; in vitro, sequencing; the parent is a self-cleaving ribozyme

Variant	self-cleavage
GGCAGAGCUCAACACAGCGUGGCCAAGUGGCUGUGACUAGACUGCC	0.48
GGCAGAGCUCAACACAGCGUGCCAAAGUAGCUGUGGCUAGACUGCC	1.19
GCCAGAGCUCAACACAGCGUGGCAAAGUGGCUGUGGCAAGACUGCC	0.06
GGCAGAGCUCAACAAAGCGUGGCAAAGUGGCUGUGGUUAGACUGCC	0.1
GGCAGACCUCAACACAGCGUGGCAAAGUGGCUGUGGCUAGACUGCU	0.08
GGCAGAGCUCAACACAGGGUGGCAAAGUGGCUGUGGCUAGAUUGCC	0.05
GGCAGAGCUCAACACAGCGUGGCAAAGUGGCUGUAGCUAGACUGGC	0.13
GGCAGAGCUCAACACAGCGUGGCAAAGUGGAUGCGGCUAGACUGCC	0.06
GGCAGAGCUCAAAACAGCGUGGCAAAGUGGAUGUGGCUAGACUGCC	0.06
GGCAGAGCUCAACACAGCGUGGCACAGUGGCUGUGGCAAGACUGCC	0.22
GGCAGAGCACAACACAGCGUGGUAAAGUGGCUGUGGCUAGACUGCC	0.21
GGCAGAGCCCAACACAACGUGGCAAAGUGGCUGUGGCUAGACUGCC	0.02
GGCAGAGCUCAACACAGCGUGCCAAAGUGGCUGUGGCUAGAAUGCC	0.13
GGCAGAGCUCAACUCAGCGUGGCAAAGUGGCUGUGGCUAGAAUGCC	0.21
GGCAGAGCUCAGCACAGCGUGGAAAAGUGGCUGUGGCUAGACUGCC	0.02
GGCAGAGCUCAACACGGGGUGGCAAAGUGGCUGUGGCUAGACUGCC	0.04
GGCAGAGGUCAACACAGCGUGGCAAAGUGGGUGUGGCUAGACUGCC	0.05
GGCCGAGCUUAACACAGCGUGGCAAAGUGGCUGUGGCUAGACUGCC	0.09
GGCAGAGCUCCACACAGCGUGGCAAAGUGGCUGCGGCUAGACUGCC	0.04
GGCAGAGCUCAACACAGCAUGGCAAAGUGGCAGUGGCUAGACUGCC	0.15
GGCAGAGUUCAACACAGCGAGGCAAAGUGGCUGUGGCUAGACUGCC	0.21
GGCACAGCUCAACACAGCGUGGCAAAGUGGCUGUGGCUGGACUGCC	0.07
GGCAGAGCUGAACACAGCGUGGCAAAGUGGAUGUGGCUAGACUGCC	0.04

Variant	self-cleavage
GGCAAAGCUCAACACAGCGUGGCAUAGUGGCUGUGGCUAGACUGCC	0.12
GGCAGAGCUCAACACAGCGUGGCAAAGUGGCUGUGGCGAGACUGCU	0.04
UGCAGAGCUCAACACAGCGCGGCAAAGUGGCUGUGGCUAGACUGCC	0.22
GGCCGAGCUCAACACAGCGUGGCAAAGUGGCUGUGGGUAGACUGCC	0.05
GGCAGAGCUCAACACUGCGUGGUAAAGUGGCUGUGGCUAGACUGCC	0.23
GGCAGAGCACAACACAGCGUGGCAAAGGGGCUGUGGCUAGACUGCC	0.15
GGCAGAGUUCAACACAGCGUGGCAAAGUGGCUGUGGAUAGACUGCC	0.14
GGCAGCGCUCAACACAGCGUGGCAAAUUGGCUGUGGCUAGACUGCC	0.56
GGCAGAGCUCAACACAGCGUAGCAAAGUGGCUGUGGCUAGCCUGCC	0.12
GGCAGAGCUCAACACAGCGUGGAAAAGUGCCUGUGGCUAGACUGCC	2.68
GGCAGAGCGCAACACAGCGUGGCAAAGUGGAUGUGGCUAGACUGCC	0.04
GGCAGAGCUCAACACAGCGUGGCAAAGUGGCUGGGGCUCGACUGCC	0.05
GGCAGAGCUCAACACAGCGGGGCAAAGUGCCUGUGGCUAGACUGCC	0.3
GUCAGAGCUCAACACAGCGUGGCAAAGUGUCUGUGGCUAGACUGCC	0.1
GGCAGCGCUCAACACAGCGUGGCAAAGUGGCUGUGGCUAUACUGCC	0.15
GGCAGAGCUCAACACAGCGUGGCAGAGUGUCUGUGGCUAGACUGCC	0.89
GGCAGAGCUCAACACAGCGUGGCAAAGUGGAUAUGGCUAGACUGCC	0.06
GGCAGACCUCAACACAGCGUGGCAAAGUGGCUGUGUCUAGACUGCC	0.1
GGCAGUGCUCAACACAGCGUGGCAAGGUGGCUGUGGCUAGACUGCC	0.31
GGCAGAGCUCAACACGGCGCGGCAAAGUGGCUGUGGCUAGACUGCC	0.37
UGCAGAGCUCAACACAGCGUGGCAAAGUGGCUGUGGCUACACUGCC	0.04
GGCAGAGCUCAACACUGCGUGGCAAAGUGGCUGUGGCUAAACUGCC	0.04
GGCAGAGCUCAACACAGCGUGCCAAUGUGGCUGUGGCUAGACUGCC	0.82

Variant	self-cleavage
GGAAGAGCUCAACACAGCGUGGCAAAGUGGCUGUGGCUACACUGCC	0.19
GCCAGAGCUCAACACAGCGUGGCAAAGUGGCUGUGGCUAGACUGCU	0.07
GGCAGAGCUCAACACAGCGCGGCAAAGUGGCUGUGGCUAGACUGGC	0.3
GGCGGAGCUCAACACAGCGUGGCAAAGUGGCUUUGGCUAGACUGCC	0.16
GCCAGAGCUCAACACAGCGUGUCAAAGUGGCUGUGGCUAGACUGCC	0.23
GGCAGAGCUCAACACAGCGUGGCAAAGUGGUUGUGGCUAGUCUGCC	0.16
GGCAGAGCUCAACACAGCGUGGCAAACUGGCUGUGGUUAGACUGCC	0.04
GGCAGAGCUCAACACAGCGUGGCAAAGUGGCUGUGACUUGACUGCC	0.22
GGCAGAGCUCGACACAGCGUGGCAAAGUGGAUGUGGCUAGACUGCC	0.02
CGCAGAGCUCAACACAGCGUGGCAAAGUCGCUGUGGCUAGACUGCC	0.07
GGCAGUUCUCAACACAGCGUGGCAAAGUGGCUGUGGCUAGACUGCC	0.14
GGCAGGGCUCAACACAGCGUGGAAAAGUGGCUGUGGCUAGACUGCC	0.11
GGCAGAGCUCAACUUAGCGUGGCAAAGUGGCUGUGGCUAGACUGCC	0.18
GGCAGAGCUCAACACAGCUUGGCAAAGUGGCUGUGGCCAGACUGCC	0.3
GGCAGAGCUCAACACAGCGUGGCAACGUCGCUGUGGCUAGACUGCC	0.37
GGCAGAGCUCAACACAGCGGGGCAAAGUGGCUGUGGCUAGCCUGCC	0.02
GGCAGAGCUCAACACAGAGUGGCAAAGUAGCUGUGGCUAGACUGCC	0.69
GGCAGAGCUCAACACAGCGUGGCGAAGUGGCUGUGGCUAGCCUGCC	0.04
GGCAGAGCUCACCACAGCGUGGGAAAGUGGCUGUGGCUAGACUGCC	0.02
GGCAGAGCUCAACACAGUGUGGCAAAGUGGCUGUGGCUGGACUGCC	0.08
GGCAGAGCUCAACACACGGUGGCAAAGUGGCUGUGGCUAGACUGCC	0.07
GGCACAACUCAACACAGCGUGGCAAAGUGGCUGUGGCUAGACUGCC	0.22
GGAAGAGCUCAACACAGCGUGGCAAAGUGGCUGUGUCUAGACUGCC	0.38

Variant	self-cleavage
GGCAGAGCUCAACACAGGGUGGCAAAGUGGCUGUGGCUAGUCUGCC	0.32
GGCAGAGCUCAACACAACGUGGCAAAGGGGCUGUGGCUAGACUGCC	0.1
GGCAGAGCUCUACACAGCGUGGCAAAGUGGCUGUGGCUAGACUCCC	0.03
GGCAGAUCUCAUCACAGCGUGGCAAAGUGGCUGUGGCUAGACUGCC	0.07
GGCAGAGGUCAACACAGCGUGGCAAAGUGGCUGUGGCUAGACUGCU	0.09
GGCAGAGCUCAACACAGCGUGGCAAAUUGGCUGUGGCUAGACUCCC	0.82
CGCAGAGCUCAACACAGCGUGGCAAAGUGGCUGUGGCUAGACUGCU	0.18
GGCAGAGCUCAACACAGCGUGGCAAAGUGGCUGUUGUUAGACUGCC	0.06
GGCAGAGCUCAACAGAGCGUGGCAAAGUGGCUGUCGCUAGACUGCC	0.13
GGCAGAGCUCAACACAGCGUGGCAAAGUGGCUUUGGCUAGCCUGCC	0.06
GGCAGAGCUCAACACACCGUGGCAAAGUGGCUGUGUCUAGACUGCC	0.08
GGCAGAGCUCAACACAGCGUGGCAAAGUGGCUGUGGCUAUACUGCC	0.15
GGCCGAGCUCAACACAGCGUGGCAAAGUGGCUGUGGCUAAACUGCC	0.16
GACAGAGCUCAAGACAGCGUGGCAAAGUGGCUGUGGCUAGACUGCC	0.45
GGCAGAGCUCAACACGGCGUGGCAAAGUGGCAGUGGCUAGACUGCC	0.07
GGCAGAGCUCAACACAGCGUCGCAAAGUGGCUGUGCCUAGACUGCC	0.03
GGCAGAGCUCAACACAGCGUGGCAAAGGGGCUGUGGCUAGACUGAC	0.44
AGCAGAGCUCAACGCAGCGUGGCAAAGUGGCUGUGGCUAGACUGCC	0.39
GGCAGAGCUCAACACAGCGUGGCAAAGUGUCUGUCGCUAGACUGCC	0.07
GGCAGAGCUCAACACAGAGUGGCAAAGUGGCUGUGGCUAGACUGCG	0.47
GGCAGAGCUCGACACAGCGUGGCAAAGUGGCUGUGGCUAGGCUGCC	0.02
GGCAGAGCGUAACACAGCGUGGCAAAGUGGCUGUGGCUAGACUGCC	0.05
GGCAGAGCCCUACACAGCGUGGCAAAGUGGCUGUGGCUAGACUGCC	0.03

Variant	self-cleavage
GGCAGAGCUCAACACAGCGUGGCAAAGUGGCUGUGGCUUGACUGCA	0.75
GGCAGAGCUCAACACAGCGUGGCAAAGUGGCUGUGUCUAGACUACC	0.06
GGCAGAGCUCAACACAGCGUGGCAAAGUGGCUGUGUCUAGACUCCC	0.08
GGCAGAGCUCAACACAGCGUGGCAAAGUGGCUGUGGCUGGACGGCC	0.12
GGCAGAGCUCAUCACAGCGUGGCAAAGUGGCUGUGCCUAGACUGCC	0.04
GGCAGAGCUCAACACAGCGUGGCAAAGUGGCUAUGGCUAGACAGCC	0.12
GGCAGAGCUCAACACAGCGUUGCAAAGUGGCCGUGGCUAGACUGCC	0.68
GGCAGAGCUCAACACAGCGUGACAAAGUGGCUGUGGCUUGACUGCC	0.5
GGCAGAGCUCAACACAGCGUGGCAAAUUGGCUGUAGCUAGACUGCC	0.18
GGCAGAGCUCAACACAGCGUGGCAAAGUUGCUGUGCCUAGACUGCC	0.1
GGCAGUGCUCAACACAGCGUGGCAAAGUGGCUGUGGCUACACUGCC	0.15
GGCAGAGCUCAACACAGCGUGGCCAAGAGGCUGUGGCUAGACUGCC	0.6
GGCAGAGCUCAACACAGCGUGGCAAAGUGGGUGUGACUAGACUGCC	0.1
AGCAGAGCUCAGCACAGCGUGGCAAAGUGGCUGUGGCUAGACUGCC	0.04
GGCAAAGCUCAAAACAGCGUGGCAAAGUGGCUGUGGCUAGACUGCC	0.15
GGCACAGCUCAACACAGCGUGGCAAAGUGGCUGUGGCUAGCCUGCC	0.04
GGCCGAGCUCAACACAGCGUGGCAAAGUGGCUGUGGCUAGACUGUC	0.2
GGCAGAGCUGAACACAGUGUGGCAAAGUGGCUGUGGCUAGACUGCC	0.09
GGCAGAGCUCAACACAGAGUGGCAAAGUGGCUGUUGCUAGACUGCC	0.07
GGCUGAGCUCAACACAGCGUGACAAAGUGGCUGUGGCUAGACUGCC	0.16
